Data from the supplement of paper PMC9233669.
Variants at the floor of the assay were thinned out.

Columns and labels:
biotinyl-Phe-oxazolone = experiment: self-aminoacylation, catalytic enhancement (BFO) (fold over background); higher = more active; k-Seq, kA / k0A0; sequences stand for … in GGGAAUGGAUCCACAUCUACGAAUUC…UUCACUGCAGACUUGACGAAGCUG
In short: (§1)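 Working in 50 μL HEPES/NaCl/KCl/MgCl2/CaCl2 buffer with 5% acetonitrile at pH 6.9–7.0, mutagenized RNA pools (0.43 μM; 21-nt variable region) were reacted with 2–1250 μM of each biotinyl-aminoacyl-oxazolone for 90 minutes at room temperature. Streptavidin capture followed, with quantification by triplicate qPCR and Illumina sequencing. Catalytic enhancement is reported as median kA over the uncatalyzed rate, the low-activity peak of a bimodal Gaussian fit to the data.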

biotinyl-Ile-oxazolone = experiment: self-aminoacylation, catalytic enhancement (BIO) (fold over background); higher = more active; k-Seq, kA / k0A0; sequences stand for … in GGGAAUGGAUCCACAUCUACGAAUUC…UUCACUGCAGACUUGACGAAGCUG
In short: as §1

biotinyl-Met-oxazolone = experiment: self-aminoacylation, catalytic enhancement (BMO) (fold over background); higher = more active; k-Seq, kA / k0A0; sequences stand for … in GGGAAUGGAUCCACAUCUACGAAUUC…UUCACUGCAGACUUGACGAAGCUG
In short: as §1

biotinyl-Val-oxazolone = experiment: self-aminoacylation, catalytic enhancement (BVO) (fold over background); higher = more active; k-Seq, kA / k0A0; sequences stand for … in GGGAAUGGAUCCACAUCUACGAAUUC…UUCACUGCAGACUUGACGAAGCUG
In short: as §1

biotinyl-Leu-oxazolone = experiment: self-aminoacylation, catalytic enhancement (BLO) (fold over background); higher = more active; k-Seq, kA / k0A0; sequences stand for … in GGGAAUGGAUCCACAUCUACGAAUUC…UUCACUGCAGACUUGACGAAGCUG
In short: as §1

biotinyl-Trp-oxazolone = experiment: self-aminoacylation, catalytic enhancement (BWO) (fold over background); higher = more active; k-Seq, kA / k0A0; sequences stand for … in GGGAAUGGAUCCACAUCUACGAAUUC…UUCACUGCAGACUUGACGAAGCUG
In short: as §1

Sequence	self-aminoacylation (biotinyl-Phe-oxazolone)	self-aminoacylation (biotinyl-Ile-oxazolone)	self-aminoacylation (biotinyl-Met-oxazolone)	self-aminoacylation (biotinyl-Val-oxazolone)	self-aminoacylation (biotinyl-Leu-oxazolone)	self-aminoacylation (biotinyl-Trp-oxazolone)
AUGACCCUGGUCAUCUAGUGA [Fam2.1 aminoacylation ribozyme variant]	63.5	3.75	8.18	3.7	8.57	9.46
AUGACGCUGGUCAUCGAGUGA [Fam2.1 aminoacylation ribozyme variant]	36.8	3.6	6.65	3.4	5.8	7.12
AUGCACCCAGGUCAUCGGGUG [Fam2.2 aminoacylation ribozyme variant]	21	3.29	3.42	3.89	4.35	5.32
AUGCACCGAGGUCAUCGGGUG [Fam2.2 aminoacylation ribozyme variant]	40.4	3.81	5.79	3.66	6.58	6.46
AUGCACCUAAGUCAUCGGGUG [Fam2.2 aminoacylation ribozyme variant]	58.2	5.66	8.76	4.84	10.5	8.67
AUGCACCUAGGCCAUCGGGUG [Fam2.2 aminoacylation ribozyme variant]	27.6	3.32	3.87	3.41	4.53	4.46
AUGCACCUAGGUCAGCGGGUG [Fam2.2 aminoacylation ribozyme variant]	18.1	3.27	3.65	3.02	4.65	5.27
AUGCACCUAGGUCAUCGCGUG [Fam2.2 aminoacylation ribozyme variant]	56	5.09	8.45	5.84	12	11
AUGCACUUAGGUCAUCGGGUG [Fam2.2 aminoacylation ribozyme variant]	62.8	5.29	8.73	5.03	10.6	7.92
AUGCCCCUAGGUCAUCGGGUG [Fam2.2 aminoacylation ribozyme variant]	63.9	5.52	8.48	5.39	11.1	7.6
AUGUUUGCUAAAAGUCGCAAG [Fam3.1 aminoacylation ribozyme variant]	4.95	1.56	1.69	1.47	1.83	2.45
AUGUUUGCUAAUAGUGGCAAG [Fam3.1 aminoacylation ribozyme variant]	1.22	0.646	0.483	0.643	0.588	0.491
AUGUUUGGUAAUAGUCGCAAG [Fam3.1 aminoacylation ribozyme variant]	3.16	1.92	1.79	1.51	1.84	2.15
AUUAAACUGGUCAUCGAGUGA [Fam2.1 aminoacylation ribozyme variant]	4.94	2.71	4.15	2.42	4.35	6.94
AUUAACCCAGGUCAUCGGGUG [Fam2.2 aminoacylation ribozyme variant]	36.2	4.38	6.61	3.58	8.17	5.58
AUUAACCGAGGUCAUCGGGUG [Fam2.2 aminoacylation ribozyme variant]	48.9	4.6	7.9	5.32	7.86	7.45
AUUAACCUAAGUCAUCGGGUG [Fam2.2 aminoacylation ribozyme variant]	63.5	4.9	8.41	4.74	12.1	7.95
AUUAACCUAGGUCAACGGGUG [Fam2.2 aminoacylation ribozyme variant]	20.5	2.13	3.36	1.89	3.59	3
AUUAACCUAGGUCAUCGCGUG [Fam2.2 aminoacylation ribozyme variant]	59.2	4.57	6.95	4.66	10.2	7.14
AUUAACCUAGGUCAUCGGGCG [Fam2.2 aminoacylation ribozyme variant]	4.51	2.55	3.99	2.63	5.44	2.17
AUUAACCUAGGUCAUCGGGGG [Fam2.2 aminoacylation ribozyme variant]	3.87	2.68	3.77	2.1	3.88	2.88
AUUAACCUAGGUCAUCGGGUG [Fam2.2 aminoacylation ribozyme variant]	248	19.7	33.2	15.8	46.3	22.8
